pIC50: −log10 of the molar value.
Legend:
Experiment in all cases: IEDB peptide-MHC binding, purified MHC/competitive/radioactivity; ≥ and ≤ were set here for values at or beyond the usual limits of such assays
Settings in all cases: source organism: hepatitis C virus genotype 1a
[1] = target: HLA-A*02:01
[2] = target: HLA-B*07:02
[3] = target: HLA-B*08:01
[4] = target: HLA-B*40:01
[5] = target: HLA-B*40:02

| Sequence | pIC50 [1] | pIC50 [2] | further results |
| --- | --- | --- | --- |
| RLWHYPCTV | 7.92 |  |  |
| RPALVFDIT |  | 7.37 |  |
| FLVGQLFTF | 7.17 |  |  |
| SLLAPGAKQNV | 6.29 |  |  |
| GVDPNIRTGV | 6.45 |  |  |
| HPALVFDIT |  | 6.80 |  |
| HSKKKCDEL |  |  | pIC50 [3]: 6.12 |
| LEDRDRSEL |  |  | pIC50 [4]: 6.37; pIC50 [5]: 5.37 |
| IPFYGKAI |  | 6.30 |  |
| VLSDFKTWL | 6.52 |  |  |

Reference: the Immune Epitope Database (IEDB)
